From patent US20220177587A1, “METHODS AND USES OF VARIANT CD80 FUSION PROTEINS AND RELATED CONSTRUCTS” (Alpine Immune Sciences, Inc., priority 2018, published 2022)

How the values were obtained:
[1] = target: human PD-L1 (human) (UniProt Q9NZQ7); experiment: flow cytometry, MFI on PD-L1 over MFI on CD28
[2] = target: CD28 (human) (UniProt P10747); experiment: flow cytometry, Jurkat cells (CD28)
[3] = target: human CTLA-4 (human) (UniProt P16410); experiment: flow cytometry, CHO cells expressing CTLA4
[4] = target: human PD-L1 (human) (UniProt Q9NZQ7); experiment: flow cytometry, CHO cells expressing PD-L1
[5] = target: human PD-L1 (human) (UniProt Q9NZQ7); experiment: flow cytometry, CHO cells stably expressing PD-L1
[6] = target: human CTLA-4 (human) (UniProt P16410); experiment: flow cytometry, CHO cells stably expressing CTLA4
[7] = target: human PD-L1 (human) (UniProt Q9NZQ7); experiment: flow cytometry, MFI on CHO/PD-L1 over MFI on Jurkat (CD28)
[8] = target: human CTLA-4 (human) (UniProt P16410); experiment: flow cytometry, CHO cells expressing huCTLA4, vs WT CD80 ECD-Fc (R&D)
[9] = target: human PD-L1 (human) (UniProt Q9NZQ7); experiment: flow cytometry, CHO cells expressing huPD-L1
[10] = target: CD28 (human) (UniProt P10747); experiment: flow cytometry, Jurkat/IL2 reporter cells (CD28)
[11] = target: human PD-L1 (human) (UniProt Q9NZQ7); experiment: flow cytometry, CHO cells expressing huPD-L1, vs WT CD80 ECD-Fc (R&D)
[12] = target: CD28 (human) (UniProt P10747); experiment: flow cytometry, Jurkat/IL2 reporter cells (CD28), vs WT CD80 ECD-Fc (R&D)
[13] = target: human CTLA-4 (human) (UniProt P16410); experiment: flow cytometry, CHO cells expressing huCTLA4

Chain of human CTLA-4 (human) (P16410 36-223): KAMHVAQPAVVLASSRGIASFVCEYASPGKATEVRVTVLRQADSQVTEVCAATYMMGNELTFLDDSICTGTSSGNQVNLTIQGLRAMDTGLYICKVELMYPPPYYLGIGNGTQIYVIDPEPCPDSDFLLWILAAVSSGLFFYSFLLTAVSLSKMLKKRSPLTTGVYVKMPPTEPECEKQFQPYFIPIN
Chain of human PD-L1 (human) (Q9NZQ7 19-290): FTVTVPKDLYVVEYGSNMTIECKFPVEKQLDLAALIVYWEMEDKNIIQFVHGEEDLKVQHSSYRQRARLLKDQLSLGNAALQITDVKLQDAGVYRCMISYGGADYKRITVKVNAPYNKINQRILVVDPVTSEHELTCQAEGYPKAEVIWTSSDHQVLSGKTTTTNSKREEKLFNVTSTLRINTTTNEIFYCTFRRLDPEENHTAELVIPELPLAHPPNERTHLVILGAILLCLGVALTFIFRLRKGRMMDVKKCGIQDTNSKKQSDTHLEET

Binder	Ratio of PDL1:CD28 [1]	Fold change to WT CD80 [2] [fold]	MFI at 33.3 nM [2] [MFI]	Fold change to WT CD80 [3] [fold]	MFI at 33.3 nM [3] [MFI]	Fold change to WT CD80 [4] [fold]	MFI at 33.3 nM [4] [MFI]	Fold change to WT CD80 [8] [fold]	MFI at 33.3 nM [9] [MFI]	MFI at 33.3 nM [10] [MFI]	Fold change to WT CD80 [11] [fold]	Fold change to WT CD80 [12] [fold]	MFI at 33.3 nM [13] [MFI]	other results
CD80 T13R/Q33R/E35D/M38I/M47L/V68M/E95V/L97Q IgV-Fc (Fc fusion) VIHVTKEVKEVARLSCGHNVSVEELAQTRIYWRKDKKIVLTMMSGDLNIWPEYKNRTIFDITNNLSIMILALRPSDEGTYECVVLKYEKDAFKRVHQAEVTLSVKAD	17.2	35.4	1110	11.8	20700	372	19200							
CD80 T13R/Q33R/E35D/M47L/V68M IgV-Fc (Fc fusion) VIHVTKEVKEVARLSCGHNVSVEELAQTRIYWRKDKKMVLTMMSGDLNIWPEYKNRTIFDITNNLSIMILALRPSDEGTYECVVLKYEKDAFKREHLAEVTLSVKAD	1040	0.4	14.1	11.8	20700	285	14700							
CD80 T13R/Q33R/E35D/M47L/V68M/L85M IgV-Fc (Fc fusion) VIHVTKEVKEVARLSCGHNVSVEELAQTRIYWRKDKKMVLTMMSGDLNIWPEYKNRTIFDITNNLSIMILALRPSDEGTYECVVMKYEKDAFKREHLAEVTLSVKAD	169	3.6	112	7.7	13400	368	18900							
CD80 IgV-Fc E35D/D46E/M47L/V68M/L85Q/F92L (Fc fusion) VIHVTKEVKEVATLSCGHNVSVEELAQTRIYWQKDKKMVLTMMSGELNIWPEYKNRTIFDITNNLSIMILALRPSDEGTYECVVQKYEKDALKREHLAEVTLSVKAD			15											Fold change to WT [5]: 158 fold; MFI at 33.3 nM [5]: 13200 MFI; Fold change to WT CD80 [6]: 0.2 fold; MFI at 33.3 nM [6]: 214 MFI; Fold change to WT [2]: 0.4 fold; Ratio of PDL1:CD28 [7]: 863
CD80 IgV-Fc S15T/H18Y/E35D/M47V/T62A/N64S/A71G/L85Q/D90N (Fc fusion) VIHVTKEVKEVATLTCGYNVSVEELAQTRIYWQKDKKMVLTMMSGDVNIWPEYKNRTIFDIANSLSIVILGLRPSDEGTYECVVQKYEKNAFKREHLAEVTLSVKAD			1070											Fold change to WT [5]: 166 fold; MFI at 33.3 nM [5]: 13900 MFI; Fold change to WT CD80 [6]: 10.7 fold; MFI at 33.3 nM [6]: 11000 MFI; Fold change to WT [2]: 25.9 fold; Ratio of PDL1:CD28 [7]: 13
variant CD80 IgV-Fc E35D/M47I/L85Q/D90G (Fc fusion) VIHVTKEVKEVATLSCGHNVSVEELAQTRIYWQKDKKMVLTMMSGDINIWPEYKNRTIFDITNNLSIVILALRPSDEGTYECVVQKYEKGAFKREHLAEVTLSVKAD								1.57	35700	4100	3.01	0.23	248000	
variant CD80 IgV-Fc E35D/M47I/T62S/L85Q (Fc fusion) VIHVTKEVKEVATLSCGHNVSVEELAQTRIYWQKDKKMVLTMMSGDINIWPEYKNRTIFDISNNLSIVILALRPSDEGTYECVVQKYEKDAFKREHLAEVTLSVKAD								1.91	45000	1760	3.79	0.1	301000	

Further lines, with some results ahead:

Ratio of PDL1:CD28 [1]	Fold change to WT CD80 [2] [fold]	MFI at 33.3 nM [2] [MFI]	Fold change to WT CD80 [3] [fold]	MFI at 33.3 nM [3] [MFI]	Fold change to WT CD80 [4] [fold]	MFI at 33.3 nM [4] [MFI]	Fold change to WT CD80 [8] [fold]	MFI at 33.3 nM [9] [MFI]	MFI at 33.3 nM [10] [MFI]	Fold change to WT CD80 [11] [fold]	Fold change to WT CD80 [12] [fold]	MFI at 33.3 nM [13] [MFI]	Binder	other results
							0.74	31200	644	2.62	0.04	117000	variant CD80 IgV-Fc Q33L/E35D/M47I/N48D/A71G (Fc fusion) VIHVTKEVKEVATLSCGHNVSVEELAQTRIYWLKDKKMVLTMMSGDIDIWPEYKNRTIFDITNNLSIVILGLRPSDEGTYECVVLKYEKDAFKREHLAEVTLSVKAD	
							0.03	1590	336	0.13	0.02	4690	variant CD80 IgV-Fc R29H/E35D/M43V/M47I/I49V (Fc fusion) VIHVTKEVKEVATLSCGHNVSVEELAQTHIYWQKDKKMVLTMVSGDINVWPEYKNRTIFDITNNLSIVILALRPSDEGTYECVVLKYEKDAFKREHLAEVTLSVKAD	
							1.64	30700	3510	2.58	0.19	258000	variant CD80 IgV-Fc Q27H/E35D/M47I/L85Q/D90G (Fc fusion) VIHVTKEVKEVATLSCGHNVSVEELAHTRIYWQKDKKMVLTMMSGDINIWPEYKNRTIFDITNNLSIVILALRPSDEGTYECVVQKYEKGAFKREHLAEVTLSVKAD	
